From paper PMC3205447

Columns and labels:
TRAF6 = TRAF6 (UniProt P70196); experiment: anti-TRAF6 IP, TAX1BP1 immunoblot; settings: reference: wild type; sites S593,S624
TRAF2 = TRAF2 (UniProt P39429); experiment: anti-TRAF2 IP, TAX1BP1 immunoblot; settings: reference: wild type; sites S593,S624
Chain of UniProt P39429 (P39429 whole entry, looked up): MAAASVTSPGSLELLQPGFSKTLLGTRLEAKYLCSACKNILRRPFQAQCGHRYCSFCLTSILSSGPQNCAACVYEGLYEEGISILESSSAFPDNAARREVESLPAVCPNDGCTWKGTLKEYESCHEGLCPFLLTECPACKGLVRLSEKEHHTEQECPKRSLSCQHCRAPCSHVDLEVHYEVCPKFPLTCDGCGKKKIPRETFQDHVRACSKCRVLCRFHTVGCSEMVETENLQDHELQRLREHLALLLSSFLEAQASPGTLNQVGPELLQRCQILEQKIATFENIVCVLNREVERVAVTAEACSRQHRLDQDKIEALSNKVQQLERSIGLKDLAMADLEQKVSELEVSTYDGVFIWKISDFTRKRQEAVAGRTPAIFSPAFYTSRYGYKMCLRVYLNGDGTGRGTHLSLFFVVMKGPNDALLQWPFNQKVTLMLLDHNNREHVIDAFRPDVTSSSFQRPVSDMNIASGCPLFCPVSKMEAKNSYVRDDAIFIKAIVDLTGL

Chain of UniProt P70196 (P70196 whole entry, looked up): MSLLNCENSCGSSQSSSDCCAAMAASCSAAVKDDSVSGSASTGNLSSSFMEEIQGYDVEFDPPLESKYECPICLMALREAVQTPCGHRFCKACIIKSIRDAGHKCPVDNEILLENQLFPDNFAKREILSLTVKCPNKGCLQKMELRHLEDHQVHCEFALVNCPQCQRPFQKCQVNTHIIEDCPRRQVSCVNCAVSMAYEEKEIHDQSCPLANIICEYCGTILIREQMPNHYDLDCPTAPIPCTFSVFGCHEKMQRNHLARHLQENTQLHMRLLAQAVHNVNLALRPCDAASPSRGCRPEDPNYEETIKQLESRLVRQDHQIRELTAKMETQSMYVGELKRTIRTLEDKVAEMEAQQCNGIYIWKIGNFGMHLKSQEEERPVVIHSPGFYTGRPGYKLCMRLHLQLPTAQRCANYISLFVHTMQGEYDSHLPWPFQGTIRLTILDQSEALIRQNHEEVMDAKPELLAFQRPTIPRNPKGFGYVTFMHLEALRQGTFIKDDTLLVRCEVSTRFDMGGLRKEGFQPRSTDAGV

**Q.** Which results are given for “TAX1BP1 (Flag-tagged, amino acids 1–747) 1-747 (from UniProt Q86VP1-2) S593A, S624A”?
**A.** binding against the reference (TRAF6): lost; binding against the reference (TRAF2): lost
